Drawing on article PMC12381156, this text covers stoichiometry N for one substance.

For the assay, the target named is G protein-coupled bile acid receptor 1 (GPBAR1), full-length human, with N-terminal FLAG and BRIL (human) (UniProt Q8TDU6). The assay is described as follows: mass photometry; samples in 20 mM HEPES, 150 mM NaCl, 0.02%/0.002% LMNG/CHS, drop-diluted in PBS to 10 nM (apo-GPBAR1) and 30 nM (GPBAR1/Gs complex with P395 and Nb35); room temperature (18 °C).
Chain of UniProt Q8TDU6 (Q8TDU6 whole entry): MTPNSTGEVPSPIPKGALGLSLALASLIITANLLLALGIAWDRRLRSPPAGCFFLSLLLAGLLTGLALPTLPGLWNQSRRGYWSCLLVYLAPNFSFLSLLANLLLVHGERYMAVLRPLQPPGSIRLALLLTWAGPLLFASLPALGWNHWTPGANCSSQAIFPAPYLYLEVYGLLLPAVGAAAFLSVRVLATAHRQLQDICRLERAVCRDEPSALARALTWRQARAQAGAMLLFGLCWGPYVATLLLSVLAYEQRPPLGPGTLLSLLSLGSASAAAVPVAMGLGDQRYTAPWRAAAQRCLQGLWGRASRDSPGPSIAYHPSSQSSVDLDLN

One may read the stoichiometry N as a count of units in the complex or per binding partner. In turn, “Gs heterotrimer (Gαs, Gβ1, Gγ2) (from UniProt P63096 1-18; P63092 16-394; P62873 2-340; P59768 1-71) (complex)” came in with a stoichiometry N of 1.
